Measured values published in patent publication US20240018513A1, “SYNTHETIC INTRONS FOR TARGETED GENE EXPRESSION” (FRED HUTCHINSON CANCER CENTER, priority 2020, published 2024).

Experiments:
Format in all cases: cell-based
[1] = test system: isogenic WT or SF3B1-mutant K562 cells; test: Single-construct cell viability (CellTiter-Glo, ATP) of cells expressing HSV-TK with synthetic intron, GCV treatment; conditions: 0-100 μg/mL GCV, 3 days
From the text: This split HSV-TK sequence or an intronless HSV-TK was cloned into a lentiviral expression vector. Isogenic WT or SF3B1-mutant K562 cells were infected. Positive integrants were selected and treated with GCV (FIG. 2B).
Stable cell lines were made by transducing K562 or MCF10A cells with lentivirus at multiplicities of infection (MOIs) of 1 (FIGS. 2C, 2G, and 2H), 0.3 (mini-library), and 0.1 (full library). Positive integrants were selected by treating with puromycin (hPGK-PuroR-P2A-HSV-TK) or flow sorting for mCherry (hPGK-HSV-TK-P2A-mCherry).
Cell viability was measured for single-construct experiments in cell culture by the CellTiter-Glo Luminescent Cell Viability Assay (Promega). For FIG. 2C, K562 cells expressing HSV-TK with the indicated synthetic introns were seeded at a density of 10,000 cells/100 μL/well in a 96-well plate in biological triplicate, and then treated with 0-100 μg/mL GCV or untreated (negative control). Viability measured after 3 days of treatment. For FIG. 2G, K562 cells expressing HSV-TK with the indicated synthetic introns were seeded at a density of 5,000 cells/100 μL/well in 96-well plate in biological triplicate, and then treated with 100 μg/mL GCV or PBS (negative control). Viability was measured after 11 days of treatment.

SF3B1-mutant K562 cells = test: Mini-screen: pooled synthetic intron mini-library in HSV-TK, GCV treatment, full-length intron sequencing from genomic DNA
From the text: (§1) Therefore, a massively parallel splicing assay was developed to map and functionally interrogate key sequence features within the synthetic intron. First, a pilot mini-library of eight synthetic introns was synthesized, seven of which were much shorter (lengths of 100-158 nt) than the parent synthetic intron (synMTERFD3i1-250), and each with one or more perturbations to potentially critical features (FIG. 2E). This mini-library was cloned into HSV-TK, introduced into WT or SF3B1-mutant K562 cells with a lentiviral vector at a low multiplicity of infection, and treated with GCV. Relative depletion of each construct was measured by high-throughput sequencing of the entire introns from genomic DNA after six days of treatment (TABLE 1).
(§2) Each synthetic intron used in the mini-library was ordered individually as a gBlock (Integrated DNA Technologies), consisting of the desired intron flanked by homology arms for cloning (5′ arm: […] (SEQ ID NO:158); 3′ arm: […] (SEQ ID NO:159; TABLE 3). The gBlocks were then mixed in equal proportions before being cloned into hPGK-PuroR-P2A-HSV-TK using a previously published strategy for pooled cloning (Thomas, J. D. et al. RNA isoform screens uncover the essentiality and tumor-suppressor activity of ultraconserved poison exons. Nature genetics 52, 84-94 (2020), incorporated herein by reference in its entirety). This intron mix was then amplified using NEBNext High Fidelity Ready Mix (New England Biolabs) and purified using 1.8×AMPure XP SPRI beads (Beckman Coulter). The backbone for the library was amplified using Q5 polymerase (New England Biolabs). The library was transformed and amplified using Endura ElectroCompetent Cells (Lucigen, 60242-2) and large LB plates. The library was maxiprepped using a Macherey-Nagel MaxiPrep kit (Thermo Fisher Scientific, Cat 740414.10).
(§3) WT or SF3B1-mutant K562 cells were infected with lentivirus encoding the mini-library at an MOI of 0.3 and untreated or treated with GCV (100 ug/mL) for 6 days. Genomic DNA was collected at day 6 and the resulting Illumina libraries were sequenced with 2×150 bp reads (Illumina MiSeq). Depletion/enrichment of each construct was estimated as follows. For each sample, reads were normalized to the total reads mapped. The relative fraction of reads mapping to each intron was then estimated by dividing the numbers of normalized reads mapped to an intron by the total reads mapped in the sample. The standard deviation was calculated using the sample proportion P for each intron (σ=sqrt [P(1−P)/n]). A fold-change was calculated for each intron by dividing the proportion of the intron in the treated GCV samples by the fraction of the intron in the untreated samples. Error propagation was used to estimate the standard deviation. The final relative fold-changes were computed by normalizing fold-changes such that the fold-change of synMTERFD3i1-250 in the pilot screen was identical to the experimentally measured fold-change in a single-construct experiment (FIG. 2C, 100 μg/mL of GCV).

WT K562 cells = test: as above; conditions: genotype WT (SF3B1+/+) K562; GCV 100 ug/mL; day 6; vector hPGK-PuroR-P2A-HSV-TK
From the text: as §1, §2, §3

[2] = test system: isogenic WT or SF3B1-mutant K562 cells; test: Fluorescent reporter (mEmerald interrupted by synthetic intron, mCardinal control), flow cytometry
From the text: These six endogenous introns served as starting points for the development of synthetic introns that functioned as compact and modular molecular switches. […] These choices were guided by the increased complexity of the 3′ss versus 5′ss, SF3B1's functional role in 3′ss recognition, and the importance of exon length in splicing. Each split mEmerald sequence was cloned into a vector with constitutive expression of the non-overlapping fluorophore mCardinal (FIG. 1E). The resulting vectors permitted quantitative assessment of mutation-dependent protein production by measuring the ratio of mEmerald to mCardinal in cells with or without an SF3B1 mutation via flow cytometry.
Each construct was transfected into isogenic WT or SF3B1-mutant K562 cells and mutation-dependent splicing and protein production was measured. […] Mutation-dependent protein production arose from mutation-dependent splicing changes, as designed (FIGS. 6G and 6H). These proof-of-principle studies confirmed the feasibility of using synthetic introns for mutation-dependent gene expression. […]

B1: intron_control: 250 nt parent synthetic intron from MTERFD3 intron 1 (first 100 and last 150 nt); SEQ ID NO 63/71 (nucleic acid)
DNA 1: GTGAGTCGCCCCCTTCCTCTGCTCCTGGGCGTGTTCCTCACCAGCGGCGCCGCAGCGGTCAGGGCCCGCAAAACCCCACGCCTCGCCAGACGCTCAGCTCCAGGAAGCAAATGCAGCTGGTGCAGGAGAGGGAAATGGGAATTAGGGTGGTGGCAGAGCCCAAAGAGGCCTTGTAGGCCATGGTAAGGCATTTCTATGTTTTATTTTACTTTGTCTTTATCCTAAAATGCCATTGGCAAGTTTATTGCAG
DNA 2: GTGAGTCGCCCCCTTCCTCTGCTCCTGGGCGTGTTCCTCACCAGCGGCGCCGCAGCGGTCAGGGCCCGCAAAACCCCACGCCTCGCCAGACGCTCAGCTCCAGGAAGCAAATGCAGCTGGTGCAGGAGAGGGAAATGGGAATTAGGGTGGTGGCAGAGCCCAAAGAGGCCTTGTAGGCCATGGTAAGGCATTTCTATGTTTTATTTTACTTTGTCTTTATCCTAAAATGCCATTGGCAAGTTTATTGCAG
viability upon GCV treatment ([1]; SF3B1-mutant K562 cells): a rapid and dose-dependent loss of viability, indistinguishable to that caused by intronless HSV-TK
viability upon GCV treatment ([1]; WT K562 cells): no significant differences in viability from untransduced cells
depletion / mutation responsiveness in mini-screen (SF3B1-mutant K562 cells; SF3B1-mutant vs WT K562, GCV, six days): markedly depleted in SF3B1-mutant, but not WT, cells
fold-change (estimated fold-change in intron abundance in gDNA) (SF3B1-mutant K562 cells; genotype K700E (SF3B1+/K700E) K562, GCV 100 ug/mL, day 6, vector hPGK-PuroR-P2A-HSV-TK): 0.23
fold-change (estimated fold-change in intron abundance in gDNA) (WT K562 cells): 0.96
mutation-dependent specificity [2]: 2 fold
